Biological target: T1, hRAGE-Fc (human, UniProt Q15109 23-342, biotin label in the selections and HTRF assays)
T1 construct: extracellular domain; also called biotin labeled hRAGE-Fc; Biotin-labeled RAGE-Fc; not shown: Fc part
Assay: HTRF competition, scFv vs labelled parental XT-M4 (competitor) on biotin hRAGE-Fc
Experimental: Increases in binding to RAGE antigen were detected with the aid of a competition assay using parental XT-M4 antibody. Both phage display and ribosome display libraries were selected for affinity improved variants by incubating with biotin labeled hRAGE-Fc, recovering binding clones using streptavidin magnetic beads and washing away non binding variants. Sequential rounds of selection were carried on decreasing antigen concentrations to drive the preferential recovery of higher affinity variants. Clones recovered after selection were subsequently screening for improved binding to hRAGE-Fc using HTRF. This is an assay that measures the decrease in fluorescence upon binding of parental europium cryptate-labeled XT-M4 to RAGE in the presence of competing test scFv antibodies. In these assays, periplasmic preparations of scFv were prepared from bacterial cultures and added in increasing concentrations to a combination of parental antibody and antigen. The ability of the scFV to compete with parental XT-M4 antibody to bind to Biotin-labeled RAGE-Fc was determined. In the presence of avidin-XL665 complex labeled XT-M4 bound to biotinylated RAGE-FC was detected by Fluorescence. Increasing amounts of scFv that competed with the XT-M4 for binding to biotinylated-RAGE-Fc was detected as a decrease in fluorescence. A sequential process of screening was used to focus in on a smaller number of clones with the greatest competition in HTRF assay

T1 sequence (Q15109 23-342): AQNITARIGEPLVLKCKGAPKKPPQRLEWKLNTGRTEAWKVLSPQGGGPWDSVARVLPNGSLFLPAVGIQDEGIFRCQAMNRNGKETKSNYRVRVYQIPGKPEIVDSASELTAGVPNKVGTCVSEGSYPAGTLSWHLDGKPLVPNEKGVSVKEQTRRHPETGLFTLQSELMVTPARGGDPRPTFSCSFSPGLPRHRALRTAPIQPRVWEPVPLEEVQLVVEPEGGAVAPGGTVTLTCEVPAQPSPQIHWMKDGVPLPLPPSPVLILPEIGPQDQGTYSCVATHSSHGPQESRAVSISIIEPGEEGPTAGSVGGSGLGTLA

Binder | IC50
3B7 scFv (scFv) scFv: DIQMTQSPSSLSASVGDRVTITCRASQDVGIYVNWFQQKPGKAPRRLIYRATNLADGVPSRFSGSRSGTDFTLTISSLQPEDFATYYCLQFDSHPLTFGGGTKVEIKDGGGSGGGGSGGGGSSEVQLVESGGGLVQPGGSLRLSCAASGFTFNNYWMTWVRQAPGKGLEWVASIDNSGDNTYYPDSVKDRFTISRDNAKNSLYLQMNSLRAEDTAVYYCARGGDITTGFDYWGQGTLVTVSS | 7.35 nM
6C11 scFv (scFv) scFv: DIQMTQSPSSLSASVGDRVTITCRASQDVGIYVNWFQQKPGKAPRRLIYRATNLADGVPSRFSGSRSGTDFTLTISSLQPEDFATYYCLQYDAHPLTFGGGTKVEIKDGGGSGGGGSGGGGSSEVQLVESGGGLVQPGGSLRLSCAASGFTFNNYWMTWVRQAPGKGLEWVASIDNSGDNTYYPDSVKDRFTISRDNAKNSLYLQMNSLRAEDTAVYYCARGGDITTGFDYWGQGTLVTVSS | 9.03 nM
3G8 scFv (scFv) scFv: DIQMTQSPSSLSASVGDRVTITCRASQDVGIYVNWFQQKPGKAPRRLIYRATNLADGVPSRFSGSRSGTDFTLTISSLQPEDFATYYCLQYDAHPLTFGGGTKVEIKDGGGSGGGGSGGGGSSEVQLVESGGGLVQPGGSLRLSCAASGFTFNNYWMTWVRQAPGKGLEWVASIDNSGDNTYYPDSVKDRFTISRDNAKNSLYLQMNSLRAEDTAVYYCARGGDITTGFDYWGQGTLVTVSS | 8.08 nM
6A12 scFv (scFv) scFv: DIQMTQSPSSLSASVGDRVTITCRASQDVGIYVNWFQQKPGKAPRRLIYRATNLADGVPSRFSGSRSGTDFTLTISSLQPEDFATYYCLQYDAHPLTFGGGTKVEIKDGGGSGGGGSGGGGSSEVQLVESGGGLVQPGGSLRLSCAASGFTFNNYWMTWVRQAPGKGLEWVASIDNSGDNTYYPDSVKDRFTISRDNAKNSLYLQMNSLRAEDTAVYYCARGGDITTGFDYWGQGTLVTVSS | 8.27 nM
3B9 scFv (scFv) scFv: DIQMTQSPSSLSASVGDRVTITCRASQDVGIYVNWFQQKPGKAPRRLIYRATNLADGVPSRFSGSRSGTDFTLTISSLQPEDFATYYCLQFDNHPLTFGGGTKVEIKDGGGSGGGGSGGGGSSEVQLVESGGGLVQPGGSLRLSCAASGFTFNNYWMTWVRQAPGKGLEWVASIDNSGDNTYYPDSVKDRFTISRDNAKNSLYLQMNSLRAEDTAVYYCARGGDITTGFDYWGQGTLVTVSS | 10.6 nM
3E8 scFv (scFv) scFv: DIQMTQSPSSLSASVGDRVTITCRASQDVGIYVNWFQQKPGKAPRRLIYRATNLADGVPSRFSGSRSGTDFTLTISSLQPEDFATYYCLQFDVHPLTFGGGTKVEIKDGGGSGGGGSGGGGSSEVQLVESGGGLVQPGGSLRLSCAASGFTFNNYWMTWVRQAPGKGLEWVASIDNSGDNTYYPDSVKDRFTISRDNAKNSLYLQMNSLRAEDTAVYYCARGGDITTGFDYWGQGTLVTVSS | 7.21 nM
6C10 scFv (scFv) scFv: DIQMTQSPSSLSASVGDRVTITCRASQDVGIYVNWFQQKPGKAPRRLIYRATNLADGVPSRFSGSRSGTDFTLTISSLQPEDFATYYCLQFDEHPLTFGGGTKVEIKDGGGSGGGGSGGGGSSEVQLVESGGGLVQPGGSLRLSCAASGFTFNNYWMTWVRQAPGKGLEWVASIDNSGDNTYYPDSVKDRFTISRDNAKNSLYLQMNSLRAEDTAVYYCARGGDITTGFDYWGQGTLVTVSS | 7.38 nM
6A10 scFv (scFv) scFv: DIQMTQSPSSLSASVGDRVTITCRASQDVGIYVNWFQQKPGKAPRRLIYRATNLADGVPSRFSGSRSGTDFTLTISSLQPEDFATYYCLQFDAHPLTFGGGTKVEIKDGGGSGGGGSGGGGSSEVQLVESGGGLVQPGGSLRLSCAASGFTFNNYWMTWVRQAPGKGLEWVASIDNSGDNTYYPDSVKDRFTISRDNAKNSLYLQMNSLRAEDTAVYYCARGGDITTGFDYWGQGTLVTVSS | 6.94 nM

Stronger by IC50, values ahead:

IC50 | Binder
1.75 nM | 6E3 scFv (scFv) scFv: DIQMTQSPSSLSASVGDRVTITCRASQDVGIYVNWFQQKPGKAPRRLIYRATNLADGVPSRFSGSRSGTDFTLTISSLQPEDFATYYCLEFDEHPLTFGGGTKVEIKDGGGSGGGGSGGGGSSEVQLVESGGGLVQPGGSLRLSCAASGFTFNNYWMTWVRQAPGKGLEWVASIDNSGDNTYYPDSVKDRFTISRDNAKNSLYLQMNSLRAEDTAVYYCARGGDIRVSLDFWGQGTLVTVSS
1.26 nM | 3C6 scFv (scFv) scFv: DIQMTQSPSSLSASVGDRVTITCRASQDVGIYVNWFQQKPGKAPRRLIYRATNLADGVPSRFSGSRSGTDFTLTISSLQPEDFATYYCLEFDEHPLTFGGGTKVEIKDGGGSGGGGSGGGGSSEVQLVESGGGLVQPGGSLRLSCAASGFTFNNYWMTWVRQAPGKGLEWVASIDNSGDNTYYPDSVKDRFTISRDNAKNSLYLQMNSLRAEDTAVYYCARGGDIVVGLDHWGQGTLVTVSS
1.44 nM | 3G3 scFv (scFv) scFv: DIQMTQSPSSLSASVGDRVTITCRASQDVGIYVNWFQQKPGKAPRRLIYRATNLADGVPSRFSGSRSGTDFTLTISSLQPEDFATYYCLEFDEHPLTFGGGTKVEIKDGGGSGGGGSGGGGSSEVQLVESGGGLVQPGGSLRLSCAASGFTFNNYWMTWVRQAPGKGLEWVASIDNSGDNTYYPDSVKDRFTISRDNAKNSLYLQMNSLRAEDTAVYYCARGGDIKVSLDHWGQGTLVTVSS
2.92 nM | 3D6 scFv (scFv) scFv: DIQMTQSPSSLSASVGDRVTITCRASQDVGIYVNWFQQKPGKAPRRLIYRATNLADGVPSRFSGSRSGTDFTLTISSLQPEDFATYYCLEFDEHPLTFGGGTKVEIKDGGGSGGGGSGGGGSSEVQLVESGGGLVQPGGSLRLSCAASGFTFNNYWMTWVRQAPGKGLEWVASIDNSGDNTYYPDSVKDRFTISRDNAKNSLYLQMNSLRAEDTAVYYCARGGDIRVMLDLWGQGTLVTVSS
2.25 nM | 6E5 scFv (scFv) scFv: DIQMTQSPSSLSASVGDRVTITCRASQDVGIYVNWFQQKPGKAPRRLIYRATNLADGVPSRFSGSRSGTDFTLTISSLQPEDFATYYCLEFDEHPLTFGGGTKVEIKDGGGSGGGGSGGGGSSEVQLVESGGGLVQPGGSLRLSCAASGFTFNNYWMTWVRQAPGKGLEWVASIDNSGDNTYYPDSVKDRFTISRDNAKNSLYLQMNSLRAEDTAVYYCARGGDIRVMLDVWGQGTLVTVSS
3 nM | 3D5 scFv (scFv) scFv: DIQMTQSPSSLSASVGDRVTITCRASQDVGIYVNWFQQKPGKAPRRLIYRATNLADGVPSRFSGSRSGTDFTLTISSLQPEDFATYYCLEFDEHPLTFGGGTKVEIKDGGGSGGGGSGGGGSSEVQLVESGGGLVQPGGSLRLSCAASGFTFNNYWMTWVRQAPGKGLEWVASIDNSGDNTYYPDSVKDRFTISRDNAKNSLYLQMNSLRAEDTAVYYCARGGDIKVGLDLWGQGTLVTVSS

— patent US20100143349A1 (Pfizer, published 2010)
